# Source: publication PMC12333503
# Biological target: FLAG-tagged TDP-marginal peptide 20 (TDP-MP20), shortened splicing isoform of TDP-43 (human (cDNA cloned from HEK293T cells))
# Test: co-IP; HEK293T cells co-overexpressing a FLAG-tagged TDP-43 isoform and FL-Venus; IP with anti-DDDDK (FLAG) antibody, 3 h at 4°C, Protein G Mag Sepharose beads, three low-salt washes and one high-salt wash; Venus signal normalised to FLAG signal in the IP (n = 3)
# Sequence of FLAG-tagged TDP-marginal peptide 20 (TDP-MP20), shortened splicing isoform of TDP-43 (human (cDNA cloned from HEK293T cells)) (Q13148 whole entry, canonical isoform): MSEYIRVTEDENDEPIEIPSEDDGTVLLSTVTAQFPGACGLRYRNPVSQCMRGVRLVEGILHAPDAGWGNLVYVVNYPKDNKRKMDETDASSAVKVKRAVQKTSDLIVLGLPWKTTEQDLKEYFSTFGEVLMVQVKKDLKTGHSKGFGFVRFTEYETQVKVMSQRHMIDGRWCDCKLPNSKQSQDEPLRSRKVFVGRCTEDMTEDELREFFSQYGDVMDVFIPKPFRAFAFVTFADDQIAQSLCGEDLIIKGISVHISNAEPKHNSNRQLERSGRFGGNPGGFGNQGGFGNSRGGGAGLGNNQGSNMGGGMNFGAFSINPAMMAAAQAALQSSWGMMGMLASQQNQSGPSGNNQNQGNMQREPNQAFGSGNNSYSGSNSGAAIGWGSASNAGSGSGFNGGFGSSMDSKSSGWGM
substance,measurement,value
TDP-FL fused to Venus (from UniProt Q13148 1-414) (natural protein),fold of co-precipitated FL-Venus (ratio of FL-Venus to FLAG in the IP) relative to FLAG-FL,5.7 fold
same,fold of co-precipitated FL-Venus (ratio of FL-Venus to FLAG in the IP) relative to FLAG-MP18,2.3 fold
